Source: paper PMC9482095
Read-outs that look alike come from different tables or passages of the source.

Experiments:
FOXO1 FKH L183P [1] = target: T1, FOXO1 FKH L183P (UniProt Q12778 151-265, L183P); experiment: EMSA
FOXO1 FKH L183P [2] = target: T1, FOXO1 FKH L183P; experiment: EMSA; remark: listed apart in the source

T1 sequence (Q12778 151-265 L183P): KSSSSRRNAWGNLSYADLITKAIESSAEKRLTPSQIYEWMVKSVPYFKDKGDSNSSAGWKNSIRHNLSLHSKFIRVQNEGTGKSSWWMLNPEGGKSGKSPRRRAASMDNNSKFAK

Row | Binder | Kd (FOXO1 FKH L183P [1]) | Kd (FOXO1 FKH L183P [2])
1 | dsIRE (dsDNA) DNA 1: TAAGCTAGTGGTTTGTTTTGCTTGCTAGCAAT DNA 2: ATTGCTAGCAAGCAAAACAAACCACTAGCTTA | 460 ± 100 nM | –
2 | dsDBE2 (dsDNA) DNA 1: TAAGCTAGTCTTGTTTACATTTTGCTAGCAAT DNA 2: ATTGCTAGCAAAATGTAAACAAGACTAGCTTA | – | 230 nM
